For the assay, the target named is mCherry-LHBs (HBV large envelope protein with mCherry at the N-terminus) (Hepatitis B virus) (UniProt P03138). Description: FRET or BRET.

The values below come from paper PMC11933560.

Regarding “mCherry-LHBs (HBV large envelope protein with mCherry at the N-terminus) (from UniProt P03138 1-389) (natural protein)”, the FRET efficiency is 35%.
